Target: Anasazi bean lectin (lectin from seeds of Phaseolus vulgaris cv. Anasazi beans) (Phaseolus vulgaris)
Test: SEC; FPLC-gel filtration on Superdex 200 HR 10/30 calibrated with molecular-mass standards, 20 mM Tris-HCl buffer (pH 7.3); 60 kDa peak set against the 30 kDa band in SDS-PAGE

## Anasazi bean lectin (lectin from seeds of Phaseolus vulgaris cv. Anasazi beans) (natural protein)
  stoichiometry N: 2

Source: paper PMC2661133
